From EP4480965A1, “TRANSFERRIN RECEPTOR-BINDING MOLECULES, CONJUGATES THEREOF AND THEIR USES TO PREVENT OR TREAT CNS DISEASES” (Vect-Horus, priority 2023, dated 2024) come the findings set out here.

Test [1] addresses mouse transferrin receptor fused to EGFP, expressed on CHO cells (mouse) (UniProt Q62351). The experiment in a line: cell-based assay on mTfR, apparent Kd.
Test [2] has as its target murine TfR expressed by murine neuroblastoma Neuro-2a cells (mouse) (UniProt Q62351). The experiment in a line: cell-based or functional assay.

Chain of mouse transferrin receptor fused to EGFP, expressed on CHO cells (mouse) (Q62351 whole entry, the tested form may be a part): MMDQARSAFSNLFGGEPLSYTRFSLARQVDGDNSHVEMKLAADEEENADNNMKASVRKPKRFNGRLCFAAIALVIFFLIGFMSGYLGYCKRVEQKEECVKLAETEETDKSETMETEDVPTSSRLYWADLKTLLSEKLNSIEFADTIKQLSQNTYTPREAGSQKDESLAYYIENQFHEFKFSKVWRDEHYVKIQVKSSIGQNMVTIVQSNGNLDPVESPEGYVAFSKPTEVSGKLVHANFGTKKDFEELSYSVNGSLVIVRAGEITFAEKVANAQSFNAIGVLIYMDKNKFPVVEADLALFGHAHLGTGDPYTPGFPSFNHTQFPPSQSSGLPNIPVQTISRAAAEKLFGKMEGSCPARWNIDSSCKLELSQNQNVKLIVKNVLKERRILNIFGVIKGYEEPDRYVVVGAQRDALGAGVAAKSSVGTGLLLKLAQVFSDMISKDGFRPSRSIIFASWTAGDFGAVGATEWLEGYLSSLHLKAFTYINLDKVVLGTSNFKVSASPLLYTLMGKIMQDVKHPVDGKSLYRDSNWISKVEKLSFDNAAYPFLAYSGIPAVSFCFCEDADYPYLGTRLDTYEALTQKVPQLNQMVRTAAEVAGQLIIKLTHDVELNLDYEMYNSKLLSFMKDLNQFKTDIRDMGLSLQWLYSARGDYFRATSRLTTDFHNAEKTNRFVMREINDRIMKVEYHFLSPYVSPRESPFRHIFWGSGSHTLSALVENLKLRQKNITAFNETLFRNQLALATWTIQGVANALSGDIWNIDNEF
Chain of murine TfR expressed by murine neuroblastoma Neuro-2a cells (mouse) (Q62351 whole entry): as the sequence (Q62351 whole entry, the tested form may be a part) above

B1: B8h1-NT(8-13) (protein, part only; not given: nothing essential, part only)
chain, part: EVQLVESGGGVVQPGGSLRLSCAASGEIFSINFMRWYRQAPGKGLEWVAGFTRDGSTNYPDSVKGRFTISRDNAKNTVYLQMNSLRPEDTAVYYCYMLDTWGQGTQVTVSSHHHHHHGGGGSGGGGS
With B1, the Kd in test [1] was found to be 2.8 nM.

B2: C5-hFc-siSOD1m-5'VP (protein, part only; not given: Fc knob and hole arms, siRNA, part only)
chain, part: EVQLVESGGGVVQPGGSLKLSCVASGTDFSINFIRWYRQAPGKQREFVAGFTATGNTNYADSMKGRFTISRDNTKNAVYLQIDSLKPEDTAVYYCYMLDKWGQGTQVTVSSAAAEQKLISEEDLNGAAHHHHHHGS
In the case of B2, the mean IC50 of mSOD1 mRNA downregulation, free uptake on Neuro-2a cells in test [2] was 8.7 nM.
